Data from patent US20240209096A1 (INVETX, published 2024).
Where a chain is given by its changes, count along the chain named. Names and notes keep the numbering of the source. Values belong to the binder of their own block, whether it stands above or below them.

Columns and labels:
[1] = molecular target: T1, canine FcRn (soluble large subunit p51 isoform X2 with 6xHis-tag, co-expressed with canine … (canine)); experiment: SPR, IgG on protein L chip, FcRn in flow, pH 5.9, 1:1 fit; pH 5.9, 1:1 kinetic fit
T1 construct: Heterodimer made by co-expression in CHO cells, purified on HISTRAP FF, >95% pure by SEC; Both entries hold a 19-residue signal peptide at the N-terminus that should be removed (residues 1-19); also called FcRn complex
T1 chain: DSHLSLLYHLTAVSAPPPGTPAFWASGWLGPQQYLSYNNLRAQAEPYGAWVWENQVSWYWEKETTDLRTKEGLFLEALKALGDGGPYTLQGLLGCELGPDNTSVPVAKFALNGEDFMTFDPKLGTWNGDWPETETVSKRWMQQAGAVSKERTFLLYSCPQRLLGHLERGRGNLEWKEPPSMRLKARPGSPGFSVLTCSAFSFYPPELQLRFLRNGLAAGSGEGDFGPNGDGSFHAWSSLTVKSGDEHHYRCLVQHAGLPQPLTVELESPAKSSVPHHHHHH
T1 b2m: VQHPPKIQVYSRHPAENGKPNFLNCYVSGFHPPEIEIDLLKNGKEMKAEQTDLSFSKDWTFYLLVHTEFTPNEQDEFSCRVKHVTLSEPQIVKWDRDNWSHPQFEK
Description: (§1) The canine FcRn binding experiments at pH 5.9 and pH 7.4 were completed on a BIACORE™ T200 instrument. A Series S Protein L Sensor chip (Cytiva, Cat. No. BR29205137) was used to capture the antibody variants via the kappa (κ) light chain. The canine variants were captured onto the protein L chip at a flow rate of 10 μL/min for 60 seconds. Approximately 250 RUs of the variants were captured. For the low pH binding condition, 1×PBX-P+ (Cytiva, Cat. No. 28995084) was adjusted to pH 5.9. The canine FcRn was flowed over the sensor chip at 30 μL/min for 120 seconds contact time and 600 seconds dissociation time. Regeneration of the flow cells was completed by flowing over 10 mM glycine, pH 1.7 at 30 μL/min for 30 seconds. The data were evaluated by the BIACORE™ T200 Evaluation software (version 3.2.1) by fitting to a 1:1 kinetic interaction model.

[2] = molecular target: T1, canine FcRn (soluble large subunit p51 …); experiment: SPR, IgG on protein L chip, FcRn in flow, pH 5.9, kinetic data
Description: as §1

[3] = molecular target: T1, canine FcRn (soluble large subunit p51 …); experiment: SPR, IgG on protein L chip, FcRn in flow, pH 7.4, steady state fit
Description: as §1
A subset of the Fc variants was tested for binding to canine FcRn at pH 7.4. For these experiments, 1×PBX-P+ (Cytiva, Cat. No. 28995084) was adjusted to pH 7.4. […] In addition, the pH 7.4 data were evaluated by the BIACORE™ T200 Evaluation software (version 3.2.1) by fitting to steady state affinity model. The kinetic binding data for the variants at pH 7.4 along with the binding data at pH 5.9 for these variants are shown in Table 7 below.

[4] = molecular target: T1, canine FcRn (soluble large subunit p51 …); experiment: SPR, IgG on protein L chip, FcRn in flow, pH 5.9, 1:1 fit
Description: as §1

- Kd [1]: 231 nM
- koff [1]: 0.0927 s⁻¹
- kon [1]: 285000 M⁻¹ s⁻¹
B1: IgG with wild-type canine IgGB Fc (antibody)
heavy: EVQLVESGGDLVAPSQSLSITCTVSGMSLTSNSISWVRQPPGRGLEWLGTIWSNGGTDYTDAVKGRFTISRDNAKNTVYLQMNSLRAEDTAMYYCAQIYYYDADYLHWYFDFWGQGTLVTVSSASTTAPSVFPLAPSCGSTSGSTVALACLVSGYFPEPVTVSWNSGSLTSGVHTFPSVLQSSGLYSLSSMVTVPSSRWPSETFTCNVAHPASKTKVDKPVPKRENGRVPRPPDCPKCPAPEAAGGPSVFIFPPKPKDTLLIARTPEVTCVVVDLDPEDPEVQISWFVDGKQMQTAKTQPREEQFNGTYRVVSVLPIGHQDWLKGKQFTCKVNNKALPSPIERTISKARGQAHQPSVYVLPPSREELSKNTVSLTCLIKDFFPPDIDVEWQSNGQQEPESKYRTTPPQLDEDGSYFLYSKLSVDKSRWQRGDTFICAVMHEALHNHYTQESLSHSPG
light: EIVMTQSPASLSASQEEKVTITCRASEGISNNLAWYQQKPGQAPKLLIHATSSLQTGVPSRFSGSGSGTDFTLTISSLQPEDFATYYCQQGYQFPLTFGQGTKVEIKRNDAQPAVYLFQPSPDQLHTGSASVVCLLNSFYPKDINVKWKVDGVIQDTGIQESVTEQDKDSTYSLSSTLTMSSTEYLSHELYSCEITHKSLPSTLIKSFQRSECQRVD
notes: Full chains; canine IgGB constant domain with MALA mutations; variable domains of WO 2023/97275; also called Wild-type Fc

- Kd [2]: 15.7 nM
- koff [2]: 0.0318 s⁻¹
- kon [2]: 2.04e+06 M⁻¹ s⁻¹
- Kd [3]: 2170 nM
- Kd [4]: 15.7 nM
- koff [4]: 0.0318 s⁻¹
- kon [4]: 2.04e+06 M⁻¹ s⁻¹
B2: IgG with canine IgGB Fc variant N434H, T286Y (antibody)
heavy: B1 heavy with T295Y, N445H
light: B1 light
notes: Full chains; canine IgGB constant domain with MALA mutations; variable domains of WO 2023/97275
